The source of these data is patent US20250263440A1, “CD38-BINDING AGENTS AND USES THEREOF” (PeptiDream Inc., priority 2019, published 2025).

Test [1] has as its target T1, CD38 (Homo sapiens, UniProt P28907).
T1 construct: purchased R&D Systems
Kind of test: ELISA binding assay of I-1 / I-2 sequence variants to CD38. How it is done:
Recombinant human CD38 proteins were purchased from R&D Systems. In some embodiments, the following codons were used. ClAc-Ala: N-Chloroacetyl-L-alanine; MePhe: N-Methyl-L-phenylalanine; MeGly: N-Methyl-glycine; Ahp: (S)-2-aminoheptanoic acid; Bph: (S)-3-([1,1′-biphenyl]-4-yl)-2-aminopropanoic acid.
A number of compounds having similar structures to compound I-1 (difference being amino acid sequence) were prepared and assessed in an ELISA assay. The first sequence is of I-1, and SEQ ID.NO.1.
A number of compounds having similar structures to compound I-2 (difference being amino acid sequence) were prepared and assessed in an ELISA assay. The first sequence is of I-2, and SEQ ID NO. 2.
A general note: ELISA stands for enzyme-linked immunosorbent assay.

Test [2] concerns the target T1, CD38. Kind of test: SPR assay (BIACORE T200, Sensor Chip CM3, single-cycle kinetics) of binding to immobilized CD38. Particulars: for kon / koff: SPR Biacore T200, CM3 chip, HBS-EP with 1% DMSO; for kon: read-out: Ka (association rate constant); for koff: read-out: Kd (dissociation rate constant); for Kd: pegylated compounds, SPR as in Example 2. The method, then: One of many useful technology for assessing CD38 binding is surface plasmon resonance (SPR). For example, the binding constant of I-1 (SEQ ID NO. 1; same as below) and I-2 (SEQ ID NO. 2; same as below) to CD38 was analyzed by a SPR assay using BIACORE T200 (cytiva: Former GE Healthcare). After the equilibration of Series S Sensor Chip CM3 (produced by cytiva: Former GE Healthcare) with Running Buffer (HBS-EP with 1% (v/v) DMSO), an EDC/NHS mixture was injected at a flow rate of […] for 4 minutes to thereby activate the functional groups on sensor chip. CD38 in 10 mM Acetate (pH5.5) was injected immobilized to at a flow rate of 5 L/min. For 4 minutes to immobilize the CD38 on the substrate surfaces of the sensor chip. Then Ethanolamine was injected at a flow rate of […] for 4 minutes. 1.0 M Ethanolamine (aq.) was injected at a flow rate of […] for 420 seconds for capping. 10 mM Peptides in DMSO were diluted to obtain 10 uM with Running Buffer, and prepared 100 nM, 50 nM, 25 nM, 10 nM, 5 nM of each peptide solutions (Peptide Samples).
Using these Peptide Samples, kinetics of peptides against CD38 was measured. The method adopted for sample measurement was a single-cycle kinetics method. The analysis was conducted using the evaluation software provided with Biacore T200. A DMSO correction curve obtained by solvent correction measurements was applied for the analysis. Kinetics fitting was done on the difference data obtained by subtracting the baseline data from sample measurement data.
KD values were calculated based on the association rate constant (ka) and dissociation rate constant (kd).
The binding constant of pegylated compounds was analyzed by a surface plasmon resonance as in the Example −2.

In the next test the target is T2, His-tagged CD38 (human, UniProt P28907 43-300, limits assumed).
T2 construct: The order of CD38 and tag is not known; not shown: His tag
Put plainly: SPR (Biacore S200), His-tagged CD38 immobilised, single-cycle kinetics. How it is done:
EDC/NHS mixture was injected at a flow rate of […] for 7 minutes to thereby activate the functional groups on sensor chip. His-tagged CD38 in Running Buffer (10 mM HEPES pH7.4, 150 mM NaCl, 0.05% Tween 20) was injected immobilized to at a flow rate of […]. For 7 minutes to immobilize the CD38 on the substrate surfaces of the sensor chip. Then Ethanolamine was injected at a flow rate of […] for 7 minutes.
1.0 M Ethanolamine(aq.) was injected at a flow rate of 10 L/min for 420 seconds for capping. 10 mM peptides (which were synthesised described above) in DMSO were diluted to obtain 10 uM with Running Buffer, and prepared 100 nM, 50 nM, 25 nM, 10 nM, 5 nM of each peptide's solutions (Peptide Samples).
Using these Peptide Samples, kinetics of peptides against His-tagged CD38 was measured. The method adopted for sample measurement was a single-cycle kinetics method. The analysis was conducted using the evaluation software 1.1 provided with Biacore S200. A DMSO correction curve obtained by solvent correction measurements was applied for the analysis. Kinetics fitting was done on the difference data obtained by subtracting the baseline data from sample measurement data.
A general note: Surface plasmon resonance follows binding to a sensor surface in real time, without labels.

[3] abbreviates: compounds similar to I-1, larger values indicate stronger binding.
Setting [4] is: compounds similar to I-2, larger values indicate stronger binding.

Positions of bridges follow the written chain, without caps; N, C: chain ends. Non-standard residues stand in square brackets, D forms with d. Residues, ends and D or L forms follow the SMILES beside them. No end group written: not given here. PEG12 = NCCOCCOCCOCCOCCOCCOCCOCCOCCOCCOCCOCCOCCC(=O)O; Bip = N[C@@H](Cc1ccc(-c2ccccc2)cc1)C(=O)O; Met(O2) = CS(=O)(=O)CC[C@H](N)C(=O)O; NMeF = CN[C@@H](Cc1ccccc1)C(=O)O; hArg = N=C(N)NCCCC[C@H](N)C(=O)O; Ahp(2) = CCCCC[C@H](N)C(=O)O; PEG4 = NCCOCCOCCOCCOCCC(=O)O

Turning to `CCCCC[C@@H]1NC(=O)[C@H](CCCNC(=N)N)NC(=O)[C@H](C)NC(=O)CSC[C@@H](C(N)=O)NC(=O)[C@H](CC(=O)O)NC(=O)[C@H](CCCCC)NC(=O)[C@H](Cc2ccc(-c3ccccc3)cc2)NC(=O)[C@H](CC(C)C)NC(=O)[C@H](C(C)C)NC(=O)CNC(=O)[C@H](CC(=O)O)NC(=O)[C@H](Cc2c[nH]cn2)NC(=O)[C@H](Cc2ccc(O)cc2)NC1=O` [I-1], the “Binding Assay” value on CD38 [1] (setting [3]) worked out at 1.97. Also, at CD38 [2], the kon was 770000 M⁻¹ s⁻¹ and the koff was 0.0018 s⁻¹.
`CC(C)C[C@@H]1NC(=O)[C@H](C)NC(=O)CSC[C@@H](C(N)=O)NC(=O)[C@H](C(C)C)NC(=O)[C@H](Cc2c[nH]c3ccccc23)NC(=O)[C@H](C(C)C)NC(=O)[C@H](Cc2ccc(-c3ccccc3)cc2)NC(=O)[C@@H]2CCCN2C(=O)[C@H](CC(C)C)NC(=O)[C@H](C(C)C)NC(=O)[C@H](Cc2ccccc2)N(C)C(=O)[C@H](Cc2c[nH]cn2)NC1=O` [I-2] ({CH2CO}-ALH[NMeF]VLP[Bip]VWVC-NH2; thioether N-12): the “Binding Assay” value at CD38 [1] (setting [4]) was found to be 1.69. Besides, at CD38 [2], the kon turned out to be 360000 M⁻¹ s⁻¹ and the koff is 0.013 s⁻¹.
For `CCCCC[C@@H]1NC(=O)[C@H](CCCNC(=N)N)NC(=O)[C@H](C)NC(=O)CSC[C@@H](C(=O)NCCOCCOCCOCCOCCOCCOCCOCCOCCOCCOCCOCCOCCC(=O)N[C@@H](CCCCN)C(N)=O)NC(=O)[C@H](CC(=O)O)NC(=O)[C@H](CCCCC)NC(=O)[C@H](Cc2ccc(-c3ccccc3)cc2)NC(=O)[C@H](CC(C)C)NC(=O)[C@H](C(C)C)NC(=O)CNC(=O)[C@H](CC(=O)O)NC(=O)[C@H](Cc2c[nH]cn2)NC(=O)[C@H](Cc2ccc(O)cc2)NC1=O` [I-4], binding on CD38 [2] was characterised by a dissociation constant (Kd) of 4.3 nM. In other words, the single-digit nanomolar range.
Consider `CC(C)C[C@@H]1NC(=O)[C@H](C)NC(=O)CSC[C@@H](C(=O)NCCOCCOCCOCCOCCC(=O)N[C@@H](CCCCN)C(N)=O)NC(=O)[C@H](C(C)C)NC(=O)[C@H](Cc2c[nH]c3ccccc23)NC(=O)[C@H](C(C)C)NC(=O)[C@H](Cc2ccc(-c3ccccc3)cc2)NC(=O)[C@@H]2CCCN2C(=O)[C@H](CC(C)C)NC(=O)[C@H](C(C)C)NC(=O)[C@H](Cc2ccccc2)N(C)C(=O)[C@H](Cc2c[nH]cn2)NC1=O` [I-5] ({CH2CO}-ALH[NMeF]VLP[Bip]VWVC[PEG4]K-NH2; thioether N-12), for which, at CD38 [2], binding was put at a Kd of 10.5 nM.
The same measure, in the same setting: as for `CC(C)C[C@@H]1NC(=O)[C@H](C)NC(=O)CSC[C@@H](C(=O)NCCOCCOCCOCCOCCOCCOCCOCCOCCOCCOCCOCCOCCC(=O)N[C@@H](CCCCN)C(N)=O)NC(=O)[C@H](C(C)C)NC(=O)[C@H](Cc2c[nH]c3ccccc23)NC(=O)[C@H](C(C)C)NC(=O)[C@H](Cc2ccc(-c3ccccc3)cc2)NC(=O)[C@@H]2CCCN2C(=O)[C@H](CC(C)C)NC(=O)[C@H](C(C)C)NC(=O)[C@H](Cc2ccccc2)N(C)C(=O)[C@H](Cc2c[nH]cn2)NC1=O` [I-6] ({CH2CO}-ALH[NMeF]VLP[Bip]VWVC[PEG12]K-NH2; thioether N-12), the figure is 11.7 nM.
On to “A A Ahp Y H D G V L Bph Ahp D C: compound of similar structure to I-1, difference being amino acid sequence: Ala at position 2 (YHDGVL[Bip][Ahp(2)]DC; not fully specified (N-terminus, bridges))”, for which the “Binding Assay” value with CD38 [1] (setting [3]) is reported as 0.60.
In the case of “A L H A V L P Bph V W V C: compound of similar structure to I-2, difference being amino acid sequence: Ala at position 4 (ALHAVLP[Bip]VWVC; not fully specified (N-terminus, bridges))”, the “Binding Assay” value with CD38 [1] (setting [4]) was 0.10.
As for “A L H MeF V L P A V W V C: compound of similar structure to I-2, difference being amino acid sequence: Ala at position 8 (VLPAVWVC; not fully specified (N-terminus, bridges))”, the “Binding Assay” value with CD38 [1] (setting [4]) is given as 0.09.
Regarding “A R A Y H D G V L Bph Ahp D C: compound of similar structure to I-1, difference being amino acid sequence: Ala at position 3 (ARAYHDGVL[Bip][Ahp(2)]DC; not fully specified (N-terminus, bridges))”, in the test with CD38 [1] (setting [3]), the “Binding Assay” value was 0.11.
Turning to “A R Ahp A H D G V L Bph Ahp D C: compound of similar structure to I-1, difference being amino acid sequence: Ala at position 4 (AHDGVL[Bip][Ahp(2)]DC; not fully specified (N-terminus, bridges))”, the “Binding Assay” value with CD38 [1] (setting [3]) is 0.11.
Still for that read-out and setting: the result for “A R Ahp Y A D G V L Bpb Ahp D C: compound of similar structure to I-1, difference being amino acid sequence: Ala at position 5 (YADGVL; not fully specified (N-terminus, C-terminus, bridges))” reads 0.28.

B1: Circular peptide having amino acid sequence represented by SEQ ID NO.12 (peptide)
peptide: {CH2CO}-AR[Ahp(2)]YHD[hArg]VL[Bip][Ahp(2)]DC
modifications: thioether N-13; not fully specified; also: circular peptide, closure not given here
Take B1: the Kd (as a rule, the concentration at which binding is half-saturated) with His-tagged CD38 was found to be 2.29 nM.

B2: Circular peptide having amino acid sequence represented by SEQ ID NO.26 (peptide)
peptide: ARXYHDEVLXXDC
modifications: not fully specified; Ahp at 3; Bph at 10; PhNva ((S)-2-amino-5-phenylpentanoic acid) at 11; circular peptide
The molecule B2 showed a Kd with His-tagged CD38 of 26 nM. This Kd lies about 11-fold higher than the previous one.

B3: Circular peptide having amino acid sequence represented by SEQ ID NO.23 (peptide)
peptide: ARXYHDEVLXXDC
modifications: not fully specified; Ahp at 3; Bph at 10; Ano ((S)-2-aminononanoic acid) at 11; circular peptide
As for B3, the dissociation constant (Kd) with His-tagged CD38 stood at 3.34 nM.

B4: Circular peptide having amino acid sequence represented by SEQ ID NO.24 (peptide)
peptide: ARXYHDEVLXXDC
modifications: not fully specified; Ahp at 3; Bph at 10; Ado ((S)-2-aminoundecanoic acid) at 11; circular peptide
Take B4: the Kd with His-tagged CD38 stood at 3.53 nM. The Kd values of the last two molecules are within 1.5-fold of each other.
Molecule {CH2CO}-AR[Ahp(2)]YHDGV[Met(O2)][Bip][Ahp(2)]DC (thioether N-13; not fully specified) [Circular peptide having amino acid sequence represented by SEQ ID NO.9] returned a Kd with His-tagged CD38 of 9.44 nM.
Same read-out and setting: as for {CH2CO}-AR[Ahp(2)]YHDEVL[Bip][Ahp(2)]AC (thioether N-13) [Peptide of SEQ ID NO.27], the figure is 4.99 nM.

B5: Circular peptide having amino acid sequence represented by SEQ ID NO.13 (peptide)
peptide: {CH2CO}-AR[Ahp(2)]YHDQV[Met(O2)][Bip][Ahp(2)]DC
modifications: thioether N-13; not fully specified; also: circular peptide, closure not given here
In the test with His-tagged CD38, B5 came in with a Kd of 22.2 nM.

B6: Circular peptide having amino acid sequence represented by SEQ ID NO.14 (peptide)
peptide: {CH2CO}-AR[Ahp(2)]YHDEV[Met(O2)][Bip][Ahp(2)]DC
modifications: thioether N-13; not fully specified; also: circular peptide, closure not given here
Take B6: the dissociation constant Kd in the test with His-tagged CD38 was 38 nM.

B7: Circular peptide having amino acid sequence represented by SEQ ID NO.25 (peptide)
peptide: ARXYHDEVLXXDC
modifications: not fully specified; Ahp at 3; Bph at 10; PhNle ((S)-2-amino-6-phenylhexanoic acid) at 11; circular peptide
In turn, B7 returned a Kd with His-tagged CD38 of 1.38 nM.
